Data reported in patent US20060002951A1.

Biological target: wild-type human APOBEC3G with a fused HA tag at the C-terminus (human) (UniProt Q9HC16)
Test: co-immunoprecipitation with anti-HA from 293T cell lysate, Western blot with anti-CA; ratio normalized to hGag

Sequence of wild-type human APOBEC3G with a fused HA tag at the C-terminus (human) (Q9HC16 whole entry, the tested form may be a part): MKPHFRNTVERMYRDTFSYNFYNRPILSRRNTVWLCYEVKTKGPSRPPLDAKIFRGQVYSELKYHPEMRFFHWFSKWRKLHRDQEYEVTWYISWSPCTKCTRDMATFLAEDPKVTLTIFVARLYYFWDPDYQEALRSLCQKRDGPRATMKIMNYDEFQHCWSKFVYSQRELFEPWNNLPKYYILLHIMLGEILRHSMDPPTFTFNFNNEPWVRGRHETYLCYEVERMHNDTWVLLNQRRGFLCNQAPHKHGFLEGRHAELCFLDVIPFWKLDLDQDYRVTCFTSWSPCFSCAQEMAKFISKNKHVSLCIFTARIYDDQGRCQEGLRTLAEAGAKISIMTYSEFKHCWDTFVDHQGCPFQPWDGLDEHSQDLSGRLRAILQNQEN

hGag deletion mutant Δ378-500 (from UniProt P04585 1-377)
reduction in the interaction of Gag with APOBEC3G against hGag: > 95%
